Assay results reported in paper PMC12365241.
Values joined by “and” are separate entries in the source; they are usually repeats but may differ in a detail not shown here. Equal values may be shown once.

Target: PorK (Porphyromonas gingivalis (endogenous))
Assay: cryo-EM structure

With PorK (natural protein) the stoichiometry N was 32 and 33.
